The target of this assay is human Tie2 (on human Tie2-expressing cells) (human) (UniProt Q02763). The experiment in a line: cell-based or functional assay.
Chain of human Tie2 (on human Tie2-expressing cells) (human) (Q02763 23-1124): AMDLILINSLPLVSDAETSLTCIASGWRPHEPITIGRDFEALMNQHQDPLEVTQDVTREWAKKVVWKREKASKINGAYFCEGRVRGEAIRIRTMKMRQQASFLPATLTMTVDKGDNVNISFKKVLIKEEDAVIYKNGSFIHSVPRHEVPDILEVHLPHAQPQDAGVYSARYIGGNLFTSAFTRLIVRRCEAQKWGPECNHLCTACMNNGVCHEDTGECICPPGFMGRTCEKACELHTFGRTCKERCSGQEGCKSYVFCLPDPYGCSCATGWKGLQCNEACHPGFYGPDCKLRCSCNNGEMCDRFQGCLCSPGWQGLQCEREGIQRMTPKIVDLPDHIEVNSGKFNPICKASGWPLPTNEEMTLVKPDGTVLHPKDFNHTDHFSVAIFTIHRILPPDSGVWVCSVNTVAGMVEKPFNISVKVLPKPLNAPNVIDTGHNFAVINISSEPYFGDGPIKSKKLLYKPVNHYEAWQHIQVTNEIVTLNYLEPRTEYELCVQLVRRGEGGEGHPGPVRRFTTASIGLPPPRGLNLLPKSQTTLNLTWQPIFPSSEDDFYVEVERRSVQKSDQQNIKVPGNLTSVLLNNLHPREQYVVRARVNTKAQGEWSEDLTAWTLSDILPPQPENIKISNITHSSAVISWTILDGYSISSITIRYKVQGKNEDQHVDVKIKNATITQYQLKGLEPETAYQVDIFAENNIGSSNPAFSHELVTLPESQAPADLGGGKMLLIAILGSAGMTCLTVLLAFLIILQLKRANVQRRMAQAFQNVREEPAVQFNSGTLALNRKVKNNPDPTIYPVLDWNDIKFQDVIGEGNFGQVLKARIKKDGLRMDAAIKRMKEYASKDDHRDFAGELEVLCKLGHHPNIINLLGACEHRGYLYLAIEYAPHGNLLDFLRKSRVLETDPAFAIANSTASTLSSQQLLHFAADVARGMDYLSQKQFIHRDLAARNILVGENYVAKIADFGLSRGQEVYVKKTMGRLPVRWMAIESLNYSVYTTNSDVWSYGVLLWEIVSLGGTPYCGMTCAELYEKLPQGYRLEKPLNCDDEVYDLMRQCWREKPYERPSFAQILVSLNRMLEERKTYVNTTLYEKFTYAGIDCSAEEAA

Consider “Ang-2 (R&D, 623-AN-025) (from UniProt O15123 19-496) (ligand)”, for which the EC50 value of anti-apoptotic activity, human Tie2-expressing BaF3 cell worked out at 0.0393 µg/mL and the Maximum activity of anti-apoptotic activities (Ang-1 = 100%) amounted to 67%.

The values are drawn from patent US20160222130A1.
